The target of series [1] is RPA (CBP-Rfa1, Rfa2, Rfa3) (Saccharomyces cerevisiae, UniProt P22336;P26754;P26755 1-621;1-273;1-122). The series can be described thus: fluorescence anisotropy; 0.5 M NaCl; apparent Kd, Hill coefficient 2.460; 30 mM HEPES pH 7.5, 30 mM NaCl, 0.25 mM EDTA, 10% glycerol, 0.01% NP-40, 1 mM DTT, plus 0.5 M NaCl for dT30 (no supplemental NaCl for dT60), 2.5 nM DNA, room temperature, 30 min. The note with it: protein: recombinant; tags: CBP on Rfa1; copies: 1;1;1; label: 6-FAM; single strand. A general note: Polarisation of emitted light reports the rotation of a fluorescent probe.

The target in the next series is EcSSB (Escherichia coli, UniProt P0AGE0 1-178). The series can be described thus: fluorescence anisotropy; 0.5 M NaCl; apparent Kd, Hill fit; 30 mM HEPES pH 7.5, 30 mM NaCl, 0.25 mM EDTA, 10% glycerol, 0.01% NP-40, 1 mM DTT, plus 0.5 M NaCl for dT30 (no supplemental NaCl for dT60), 2.5 nM DNA, room temperature, 30 min. The note with it: protein: commercial; chain copies: 4; label: 6-FAM; single strand.

The target of another series is RPA-deltaOB-F-deltaWH (Saccharomyces cerevisiae, UniProt P22336;P26754;P26755 131-621;1-202;1-122). Described as above. The following applies: protein: recombinant; tags: CBP on Rfa1; 3xFlag on Rfa2; copies: 1;1;1; label: 6-FAM; single strand.
The target of a further series is RPA-Tri-C (OB-C/D/E) (Saccharomyces cerevisiae, UniProt P22336;P26754;P26755 442-621;32-182;1-122). The series is described as above. The following applies: protein: recombinant; tags: Rfa2 C-terminal MxeGyrA intein-CBD-6xHis (in expression construct); copies: 1;1;1; label: 6-FAM; single strand.
The next series addresses T1, Gp32 (T4 bacteriophage, UniProt P03695 1-301).
T1 sequence: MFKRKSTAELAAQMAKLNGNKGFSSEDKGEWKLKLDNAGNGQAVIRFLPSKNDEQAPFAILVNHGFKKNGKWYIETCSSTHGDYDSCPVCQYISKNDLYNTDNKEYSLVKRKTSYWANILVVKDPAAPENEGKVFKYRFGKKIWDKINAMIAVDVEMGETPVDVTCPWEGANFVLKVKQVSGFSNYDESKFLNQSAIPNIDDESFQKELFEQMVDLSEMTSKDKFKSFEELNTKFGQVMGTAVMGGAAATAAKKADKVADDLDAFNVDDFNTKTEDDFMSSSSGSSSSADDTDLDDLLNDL
The description is as above. The following applies: protein: commercial; label: 6-FAM; single strand.

Another series concerns the target Pol-alpha/primase (UniProt P13382;P38121;P20457;P10363 1-1468;1-705;1-528;1-409). Nature of the series: fluorescence anisotropy; DNA pre-bound with equimolar (2.5 nM) RPA-deltaOB-F (P8); matches naked DNA; 30 mM HEPES pH 7.5, 30 mM NaCl, 0.25 mM EDTA, 10% glycerol, 0.01% NP-40, 1 mM DTT, plus 0.5 M NaCl for dT30 (no supplemental NaCl for dT60), 2.5 nM DNA, room temperature, 30 min. The note with it: protein: recombinant; copies: 1;1;1;1; label: 6-FAM; single strand.

Sequence of RPA (CBP-Rfa1, Rfa2, Rfa3) (P22336 whole entry, chain 1 of 3): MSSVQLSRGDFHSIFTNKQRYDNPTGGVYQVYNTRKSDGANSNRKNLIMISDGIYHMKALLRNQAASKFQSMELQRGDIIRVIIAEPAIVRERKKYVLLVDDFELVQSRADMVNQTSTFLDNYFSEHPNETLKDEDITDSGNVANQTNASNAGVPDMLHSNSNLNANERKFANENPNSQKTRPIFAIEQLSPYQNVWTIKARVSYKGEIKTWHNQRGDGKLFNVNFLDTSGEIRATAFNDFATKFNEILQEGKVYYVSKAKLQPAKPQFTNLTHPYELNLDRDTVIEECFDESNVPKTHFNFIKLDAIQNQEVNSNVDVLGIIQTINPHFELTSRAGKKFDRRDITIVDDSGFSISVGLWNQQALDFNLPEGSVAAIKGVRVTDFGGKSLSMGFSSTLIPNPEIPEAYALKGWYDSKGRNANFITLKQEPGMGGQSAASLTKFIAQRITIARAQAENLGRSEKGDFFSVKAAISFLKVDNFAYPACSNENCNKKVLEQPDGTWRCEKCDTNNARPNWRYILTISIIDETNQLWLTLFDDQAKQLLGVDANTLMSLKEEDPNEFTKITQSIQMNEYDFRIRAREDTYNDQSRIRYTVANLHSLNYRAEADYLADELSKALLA
Sequence of RPA (CBP-Rfa1, Rfa2, Rfa3) (P26754 whole entry, chain 2 of 3): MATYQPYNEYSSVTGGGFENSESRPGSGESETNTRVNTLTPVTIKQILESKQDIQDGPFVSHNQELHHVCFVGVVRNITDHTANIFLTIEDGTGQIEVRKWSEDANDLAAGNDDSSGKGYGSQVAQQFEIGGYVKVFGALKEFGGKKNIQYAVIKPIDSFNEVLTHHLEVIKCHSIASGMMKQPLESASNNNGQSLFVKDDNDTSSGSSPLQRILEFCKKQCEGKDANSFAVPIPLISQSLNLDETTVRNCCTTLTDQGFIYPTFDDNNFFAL
Sequence of RPA (CBP-Rfa1, Rfa2, Rfa3) (P26755 whole entry, chain 3 of 3): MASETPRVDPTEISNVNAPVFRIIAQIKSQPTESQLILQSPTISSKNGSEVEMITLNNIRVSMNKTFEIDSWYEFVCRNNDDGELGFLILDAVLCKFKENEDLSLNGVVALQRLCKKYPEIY
Sequence of EcSSB (P0AGE0 whole entry): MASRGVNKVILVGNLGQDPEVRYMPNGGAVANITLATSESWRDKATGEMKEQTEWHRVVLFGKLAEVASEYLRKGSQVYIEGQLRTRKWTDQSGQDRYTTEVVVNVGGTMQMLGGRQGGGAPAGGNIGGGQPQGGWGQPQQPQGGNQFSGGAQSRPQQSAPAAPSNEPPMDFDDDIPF
Sequence of RPA-Tri-C (OB-C/D/E) (P22336 442-621, chain 1 of 3): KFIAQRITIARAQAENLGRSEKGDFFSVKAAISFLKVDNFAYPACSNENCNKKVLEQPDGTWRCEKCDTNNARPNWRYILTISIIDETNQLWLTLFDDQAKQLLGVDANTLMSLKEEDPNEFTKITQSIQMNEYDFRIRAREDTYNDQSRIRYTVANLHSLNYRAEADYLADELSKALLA
Sequence of RPA-Tri-C (OB-C/D/E) (P26754 32-182, chain 2 of 3): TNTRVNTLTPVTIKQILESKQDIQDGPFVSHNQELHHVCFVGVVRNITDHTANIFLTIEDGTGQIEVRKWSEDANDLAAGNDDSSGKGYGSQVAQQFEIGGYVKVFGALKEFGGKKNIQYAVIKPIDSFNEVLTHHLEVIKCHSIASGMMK
Sequence of RPA-Tri-C (OB-C/D/E) (P26755 whole entry, chain 3 of 3): as the sequence (P26755 whole entry, chain 3 of 3) above
Sequence of RPA-deltaOB-F-deltaWH (P22336 131-621, stated change not applied, chain 1 of 3): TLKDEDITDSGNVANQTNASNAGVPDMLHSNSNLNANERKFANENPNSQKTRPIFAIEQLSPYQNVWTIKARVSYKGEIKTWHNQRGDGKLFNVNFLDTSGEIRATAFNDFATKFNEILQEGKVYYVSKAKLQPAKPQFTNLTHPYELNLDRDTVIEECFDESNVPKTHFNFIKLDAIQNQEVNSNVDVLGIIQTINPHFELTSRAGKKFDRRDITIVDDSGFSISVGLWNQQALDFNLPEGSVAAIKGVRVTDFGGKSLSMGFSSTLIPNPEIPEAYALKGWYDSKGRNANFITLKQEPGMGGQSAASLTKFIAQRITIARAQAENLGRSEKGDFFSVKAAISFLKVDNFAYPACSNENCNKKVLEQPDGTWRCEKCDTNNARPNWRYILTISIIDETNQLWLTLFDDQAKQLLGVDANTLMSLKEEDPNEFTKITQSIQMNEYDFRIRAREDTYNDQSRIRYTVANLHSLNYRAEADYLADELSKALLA
Sequence of RPA-deltaOB-F-deltaWH (P26754 1-202, stated change not applied, chain 2 of 3): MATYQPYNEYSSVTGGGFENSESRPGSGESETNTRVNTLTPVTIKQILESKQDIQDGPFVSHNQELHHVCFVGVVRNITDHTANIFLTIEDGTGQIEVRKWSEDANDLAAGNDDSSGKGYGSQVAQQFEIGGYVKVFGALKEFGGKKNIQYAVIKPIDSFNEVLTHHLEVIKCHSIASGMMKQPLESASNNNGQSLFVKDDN
Sequence of RPA-deltaOB-F-deltaWH (P26755 whole entry, stated change not applied, chain 3 of 3): as the sequence (P26755 whole entry, chain 3 of 3) above

B1: 6-FAM-oligo-dT30 (ssDNA)
DNA: TTTTTTTTTTTTTTTTTTTTTTTTTTTTTT
With B1, the Kd in series [1] is 1.73 nM; in the series with EcSSB, roughly 0.11 nM; in the series with RPA-deltaOB-F-deltaWH it was roughly 2.04 nM; with RPA-Tri-C (OB-C/D/E) it was roughly 2.97 nM; in the series with Gp32 it was roughly 18 nM.

B2: 6-FAM-oligo-dT60 (ssDNA)
DNA: TTTTTTTTTTTTTTTTTTTTTTTTTTTTTTTTTTTTTTTTTTTTTTTTTTTTTTTTTTTT
Take B2: the binding result with Pol-alpha/primase is given as “binds”.

(Values after article PMC10602884, “Distinct RPA functions promote eukaryotic DNA replication initiation and elongation”.)
